{
  "source": "the supplement of paper PMC6757056",
  "parents": {"B1": {"name": "library; a variant is named by its letters at N, in order (parent)", "chain": "GCUGUCACCGAGAAACUGUGAAGUAUAUCUUAAACCUGGGCACUUAAAAGAUAUAUGGAGUUAGUAGUGCAACCUGCUCGGUCUGAUGAGUCCNNNNNNGGACGAAACAGC"}},
  "key": {"cyclic di-GMP [1]": {"variants_of": "B1", "assay": "normalized RNA/DNA level without ligand (relative to sTRSVctl = 100) (log10 (% of sTRSVctl)); HEK293T; ligand: cyclic di-GMP (c-di-GMP-II aptamer); higher = less ribozyme self-cleavage, higher mRNA level", "details": "reporter: mCherry (pCS4076), ligand present: no", "summary_of_the_method": "(§1)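 Ribozyme switch library plasmids with mCherry reporters (eGFP in certain ligand experiments) went into HEK293T cells at 4 µg per 6-well well. Where ligand was used, it was applied 1 h before transfection, and total RNA was extracted with EDTA 72 h later for reverse transcription, amplification, barcoding and sequencing. RNA level is the RNA-to-DNA read ratio normalized to a spiked-in non-cleaving sequence or to the leading sequences, then scaled and log-transformed. Scaling was ×100 with log10, the leading set comprised 25 sequences, and the cutoff was ≥100 DNA reads.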"}, "cyclic di-GMP [2]": {"variants_of": "B1", "assay": "normalized RNA/DNA level with ligand (relative to sTRSVctl = 100) (log10 (% of sTRSVctl)); HEK293T; ligand: cyclic di-GMP (c-di-GMP-II aptamer); ligand concentration (+) RNA-Seq: 1 mM; higher = less ribozyme self-cleavage, higher mRNA level", "details": "reporter: mCherry (pCS4076), ligand present: yes", "summary_of_the_method": "as §1"}},
  "note": "± gives the standard deviation of the averaged measurements.",
  "data": [
    {"variant": "GCUGUCACCGAGAAACUGUGAAGUAUAUCUUAAACCUGGGCACUUAAAAGAUAUAUGGAGUUAGUAGUGCAACCUGCUCGGUCUGAUGAGUCCCUUCGGGGACGAAACAGC", "note": "[CUUCGG]", "values": [
      {"measurement": "normalized RNA/DNA level without ligand (log10)", "setting": "cyclic di-GMP [1]", "value": "1.82 ± 0.028"},
      {"measurement": "normalized RNA/DNA level with ligand (log10)", "setting": "cyclic di-GMP [2]", "value": "1.886 ± 0.0058"}
    ]},
    {"variant": "GCUGUCACCGAGAAACUGUGAAGUAUAUCUUAAACCUGGGCACUUAAAAGAUAUAUGGAGUUAGUAGUGCAACCUGCUCGGUCUGAUGAGUCCCUUCGAGGACGAAACAGC", "note": "[CUUCGA]", "values": [
      {"measurement": "normalized RNA/DNA level without ligand (log10)", "setting": "cyclic di-GMP [1]", "value": "1.71 ± 0.026"},
      {"measurement": "normalized RNA/DNA level with ligand (log10)", "setting": "cyclic di-GMP [2]", "value": "1.84 ± 0.065"}
    ]},
    {"variant": "GCUGUCACCGAGAAACUGUGAAGUAUAUCUUAAACCUGGGCACUUAAAAGAUAUAUGGAGUUAGUAGUGCAACCUGCUCGGUCUGAUGAGUCCCUUCGCGGACGAAACAGC", "note": "[CUUCGC]", "values": [
      {"measurement": "normalized RNA/DNA level without ligand (log10)", "setting": "cyclic di-GMP [1]", "value": "1.79 ± 0.024"},
      {"measurement": "normalized RNA/DNA level with ligand (log10)", "setting": "cyclic di-GMP [2]", "value": "1.83 ± 0.056"}
    ]},
    {"variant": "GCUGUCACCGAGAAACUGUGAAGUAUAUCUUAAACCUGGGCACUUAAAAGAUAUAUGGAGUUAGUAGUGCAACCUGCUCGGUCUGAUGAGUCCGUUCCUGGACGAAACAGC", "note": "[GUUCCU]", "values": [
      {"measurement": "normalized RNA/DNA level without ligand (log10)", "setting": "cyclic di-GMP [1]", "value": "1.76 ± 0.079"},
      {"measurement": "normalized RNA/DNA level with ligand (log10)", "setting": "cyclic di-GMP [2]", "value": "1.89 ± 0.13"}
    ]},
    {"variant": "GCUGUCACCGAGAAACUGUGAAGUAUAUCUUAAACCUGGGCACUUAAAAGAUAUAUGGAGUUAGUAGUGCAACCUGCUCGGUCUGAUGAGUCCGUUCGCGGACGAAACAGC", "note": "[GUUCGC]", "values": [
      {"measurement": "normalized RNA/DNA level without ligand (log10)", "setting": "cyclic di-GMP [1]", "value": "1.83 ± 0.062"},
      {"measurement": "normalized RNA/DNA level with ligand (log10)", "setting": "cyclic di-GMP [2]", "value": "1.92 ± 0.073"}
    ]},
    {"variant": "GCUGUCACCGAGAAACUGUGAAGUAUAUCUUAAACCUGGGCACUUAAAAGAUAUAUGGAGUUAGUAGUGCAACCUGCUCGGUCUGAUGAGUCCGUUCGGGGACGAAACAGC", "note": "[GUUCGG]", "values": [
      {"measurement": "normalized RNA/DNA level without ligand (log10)", "setting": "cyclic di-GMP [1]", "value": "1.71 ± 0.018"},
      {"measurement": "normalized RNA/DNA level with ligand (log10)", "setting": "cyclic di-GMP [2]", "value": "1.84 ± 0.12"}
    ]},
    {"variant": "GCUGUCACCGAGAAACUGUGAAGUAUAUCUUAAACCUGGGCACUUAAAAGAUAUAUGGAGUUAGUAGUGCAACCUGCUCGGUCUGAUGAGUCCUUUCCGGGACGAAACAGC", "note": "[UUUCCG]", "values": [
      {"measurement": "normalized RNA/DNA level without ligand (log10)", "setting": "cyclic di-GMP [1]", "value": "1.8104 ± 0.0015"},
      {"measurement": "normalized RNA/DNA level with ligand (log10)", "setting": "cyclic di-GMP [2]", "value": "1.92 ± 0.056"}
    ]},
    {"variant": "GCUGUCACCGAGAAACUGUGAAGUAUAUCUUAAACCUGGGCACUUAAAAGAUAUAUGGAGUUAGUAGUGCAACCUGCUCGGUCUGAUGAGUCCUUUCCUGGACGAAACAGC", "note": "[UUUCCU]", "values": [
      {"measurement": "normalized RNA/DNA level without ligand (log10)", "setting": "cyclic di-GMP [1]", "value": "1.812 ± 0.016"},
      {"measurement": "normalized RNA/DNA level with ligand (log10)", "setting": "cyclic di-GMP [2]", "value": "1.92 ± 0.1"}
    ]},
    {"variant": "GCUGUCACCGAGAAACUGUGAAGUAUAUCUUAAACCUGGGCACUUAAAAGAUAUAUGGAGUUAGUAGUGCAACCUGCUCGGUCUGAUGAGUCCCUUCCUGGACGAAACAGC", "note": "[CUUCCU]", "values": [
      {"measurement": "normalized RNA/DNA level without ligand (log10)", "setting": "cyclic di-GMP [1]", "value": "1.64 ± 0.025"},
      {"measurement": "normalized RNA/DNA level with ligand (log10)", "setting": "cyclic di-GMP [2]", "value": "1.8 ± 0.084"}
    ]},
    {"variant": "GCUGUCACCGAGAAACUGUGAAGUAUAUCUUAAACCUGGGCACUUAAAAGAUAUAUGGAGUUAGUAGUGCAACCUGCUCGGUCUGAUGAGUCCAUUCCUGGACGAAACAGC", "note": "[AUUCCU]", "values": [
      {"measurement": "normalized RNA/DNA level without ligand (log10)", "setting": "cyclic di-GMP [1]", "value": "1.74 ± 0.044"},
      {"measurement": "normalized RNA/DNA level with ligand (log10)", "setting": "cyclic di-GMP [2]", "value": "1.86 ± 0.1"}
    ]},
    {"variant": "GCUGUCACCGAGAAACUGUGAAGUAUAUCUUAAACCUGGGCACUUAAAAGAUAUAUGGAGUUAGUAGUGCAACCUGCUCGGUCUGAUGAGUCCUUUCGGGGACGAAACAGC", "note": "[UUUCGG]", "values": [
      {"measurement": "normalized RNA/DNA level without ligand (log10)", "setting": "cyclic di-GMP [1]", "value": "1.8 ± 0.066"},
      {"measurement": "normalized RNA/DNA level with ligand (log10)", "setting": "cyclic di-GMP [2]", "value": "1.93 ± 0.12"}
    ]},
    {"variant": "GCUGUCACCGAGAAACUGUGAAGUAUAUCUUAAACCUGGGCACUUAAAAGAUAUAUGGAGUUAGUAGUGCAACCUGCUCGGUCUGAUGAGUCCUUUCGCGGACGAAACAGC", "note": "[UUUCGC]", "values": [
      {"measurement": "normalized RNA/DNA level without ligand (log10)", "setting": "cyclic di-GMP [1]", "value": "1.789 ± 0.0088"},
      {"measurement": "normalized RNA/DNA level with ligand (log10)", "setting": "cyclic di-GMP [2]", "value": "1.89 ± 0.14"}
    ]},
    {"variant": "GCUGUCACCGAGAAACUGUGAAGUAUAUCUUAAACCUGGGCACUUAAAAGAUAUAUGGAGUUAGUAGUGCAACCUGCUCGGUCUGAUGAGUCCAUUCGAGGACGAAACAGC", "note": "[AUUCGA]", "values": [
      {"measurement": "normalized RNA/DNA level without ligand (log10)", "setting": "cyclic di-GMP [1]", "value": "1.58 ± 0.023"},
      {"measurement": "normalized RNA/DNA level with ligand (log10)", "setting": "cyclic di-GMP [2]", "value": "1.71 ± 0.066"}
    ]}
  ]
}
